Measurements: patent US20170204184A1 (CB THERAPEUTICS, published 2017)

B1: m8H4 (antibody, V domains shown)
VH: EVKLVESGGGLVKPGGSLKLSCAASGFTFRSYGMSWARQIPEKRLEWVASISSGGTTYYLGSVQGRFTISRDNARNILYLQMSSLRSEDTAMYYCARGYDAGFAYWGQGTLVSVSE
VL: DIVLTQSPASLAVSLGQRATISCRASQSVSTSSYSYMHWYQQKPGQPPKLLIKYASNLESGVPARFSGSGSGTDFTLNIHPVEEEDTATYYCQNSWEIPYTFGGGTKLEIK
notes: Murine hybridoma IgG (printed 'mIgG'); also called 8H4-mIgG; 8H4 murine
B2: ch13C5 (antibody)
VH: EVKLVESGGGLVKPGGSLKLSCAASGFIFRSYGMSWVRQTPEKRLEWVASISSGGSTYYPDSVKGRFTISRDNARNILYLQMSSLRSEDTAMYDCARGYDSGFAYWGQGTLVTVSE
light: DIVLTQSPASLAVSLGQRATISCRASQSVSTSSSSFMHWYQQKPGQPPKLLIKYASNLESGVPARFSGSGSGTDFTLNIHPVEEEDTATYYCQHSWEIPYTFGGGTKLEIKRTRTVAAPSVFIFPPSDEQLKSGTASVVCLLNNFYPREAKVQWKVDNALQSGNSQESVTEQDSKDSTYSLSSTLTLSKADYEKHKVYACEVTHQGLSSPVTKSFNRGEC
B3: m15F1 (antibody, V domains shown)
VH: EEKLVESGGGLVKPGGSLKLSCAASGFSFSSYGMSWVRQTPEKRLEWVASISSGGSIYYPDSVKGRFTISRDNARNILYLQMSSLRSEDTAMYYCARGYDAGFAFWGQGTLVTASA
VL: DIVLTQSPASLAVSLGQRATISCRASQSVSTSSYSYVHWYQQKPGQPPKLLIKYASNLESGVPARFSGSGSGTDFTLNIHPVEEEDTATYYCQHSWEIPYTFGGGTKLEIK
notes: Murine hybridoma IgG (printed 'mIgG'); also called 15F1-mIgG; 15F1 murine
B4: m13C5 (antibody, V domains shown)
VH: EVKLVESGGGLVKPGGSLKLSCAASGFIFRSYGMSWVRQTPEKRLEWVASISSGGSTYYPDSVKGRFTISRDNARNILYLQMSSLRSEDTAMYDCARGYDSGFAYWGQGTLVTVSE
VL: DIVLTQSPASLAVSLGQRATISCRASQSVSTSSSSFMHWYQQKPGQPPKLLIKYASNLESGVPARFSGSGSGTDFTLNIHPVEEEDTATYYCQHSWEIPYTFGGGTKLEIKR
notes: Murine hybridoma IgG (printed 'mIgG'); also called 13C5-mIgG; 13C5 murine
B5: m5G9 (antibody, V domains shown)
VH: EVKLVESGGGLVKPGGSLKLSCAASGFTFRSYGMSWVRQTPEKRLEWVASISSGGTTYYPDSVKGRFIISRDNARNILYLQMSSLRSEDTAMYYCAKGYDSGFAYWGQGTLVIVSA
VL: DIVLTQSPPSLAVSLGQRATISCRASQSVSTSSSSYMHWYQQKPGQPPKLLIKYASNLESGVPARFSGSGSGTDFTLNIHPVEEEDTATYYCQHSWEIPYTFGGGTKLEIK
notes: Murine hybridoma IgG (printed 'mIgG'); also called 5G9-mIgG; 5G9 murine
B6: m7B4 (antibody, V domains shown)
VH: EVKLFESGGGLVQPGGSLKLSCVASGFDFSTYWMHWVRQAPGQGLEWIGQINPDSTTINYAPSLKDRFIISRDNAKNTLFLQMSKVRSEDTALYYCAKPGDYGYDFDCWGQGTTLTVSS
VL: DVLMTQTPLYLPVSLGDQASISCRSSQIIVHSNANTYLEWFLQKPGQSPKLLIYKVSNRFSGVPDRFSGSGSGTDFTLKISRVEAEDLGVYYCFQGSHVPYTFGGGTKLEIK
notes: Murine hybridoma IgG (printed 'mIgG'); also called 7B4-mIgG; 7B4 murine
B7: m5G11 (antibody, V domains shown)
VH: QVQLKQSGPGLVQPSQSLSITCTVSGFSLTTYGVHWVRQSPGKGLEWLGVIWRGVTTDYNAAFMSRLTITKDNSKSQVFFKMNSLQANDTAIYYCARLGFYAMDYWGQGTSVTVSS
VL: SIVMTQTPKFLLVSAGDRVTITCKASQSVSNDVAWYQQKPGQSPKLLIYYAANRYTGVPDRFTGSGYGTDFTFTISIVQAEDLAVYFCQQDYTSPYTFGGGTKLEIK
notes: Murine hybridoma IgG (printed 'mIgG'); also called 5G11-mIgG; 5G11 murine
B8: ch5G11 (antibody)
VH: QVQLKQSGPGLVQPSQSLSITCTVSGFSLTTYGVHWVRQSPGKGLEWLGVIWRGVTTDYNAAFMSRLTITKDNSKSQVFFKMNSLQANDTAIYYCARLGFYAMDYWGQGTSVTVSS
light: SIVMTQTPKFLLVSAGDRVTITCKASQSVSNDVAWYQQKPGQSPKLLIYYAANRYTGVPDRFTGSGYGTDFTFTISIVQAEDLAVYFCQQDYTSPYTFGGGTKLEIKRTVAAPSVFIFPPSDEQLKSGTASVVCLLNNFYPREAKVQWKVDNALQSGNSQESVTEQDSKDSTYSLSSTLTLSKADYEKHKVYACEVTHQGLSSPVTKSFNRGEC
notes: Mouse VH linked to a human constant region
B9: m4A8 (antibody, V domains shown)
VH: QVQLKQSGPGLVQPSQSLSITCTVSGFSLTSYGVHWVRQSPGKGLEWLGVIWSGGITDYNAAFKSRLSISKDNSKSQVFFKMNSLQANDTAIYFCARLGFYAMDYWGQGTSVTVSS
VL: QIVLTQSPAIMSASPGEKVTMTCSANSSVSYMHWYQQKSGTSPKRWIYDTSKLASGVPARFSGSGSGTSYSLTISSMGAEDAATYYCQQWSSNPWTFGGGTKLEIK
notes: Murine hybridoma IgG (printed 'mIgG'); also called 4A8-mIgG; 4A8 murine
B10: m8C6 (antibody, V domains shown)
VH: QVQLKQSGPGLVQPSQSLSITCTVSGFSLTSYGVHWVRQSPGKGLEWLGVIWSGGVTDYNAAFISRLSISKDNSKSQVFFKMNSLQANDTAIYYCARLGFYAMDYWGQGTSVTVSS
VL: SIVMTQTPKFLLVSAGDRVTITCKASQSVSNDVGWYQQKPGQSPKLLIYYASNRYSGVPDRFTGSGYGTDFTFTISTVQAEDLAVYFCQQDYTSPYTFGGGTKLEIK
notes: Murine hybridoma IgG (printed 'mIgG'); also called 8C6-mIgG; 8C6 murine

Legend:
[1] = target: T1, biotinylated human PD-L1-mFc (human, biotinylated (sites not given)); experiment: competition ELISA: blocks PD-L1-mFc-biotin binding to coated PD-1-hFc
T1 construct: also called PDL-1-mFc-biotin
Procedure: The wells were aspirated and non-specific binding sites were blocked by adding 200 μL of blocking buffer (PBS with 1% (w/v) of bovine serum albumin (BSA, Roche, Cat No:738328)) and incubating for 1 hour at 37° C. After the plate was washed three times with wash buffer (PBS with 0.05% (v/v) Tween20 (Sigma, Cat No:P1379)), 100 μL/well of 1:3 serial dilutions of hybridoma (FIG. 4), chimeric (FIG. 5), or humanized (FIG. 6) anti-PD-L1 antibodies in blocking buffer (starting from 20 μg/mL) were added and incubated at 37° C. for 1 hour. […] After the plate was washed 3 times, secondary antibody (Avidin HRP eBioscience cat No.: E07418-1632, 1:500, 100 μl/well) was added and incubated at 37° C. for 0.5 hour. After the plate was washed, 100 μL/well of substrate solution TMB (eBioscience, Cat No: 00-4201-56) was added and the plate was incubated for 3min at room temperature. 100 μL/well of stop solution (2N H₂SO₄) was added to stop the reaction. The colorimetric signals were developed and read at 450 nm using an Auto Plate SpectraMax Plus (Supplier: Moleculer Devices; Model: MNR0643; Software: SoftMax Pro v5.4). Data were analyzed using GraphPad Prism 5 and IC50 was calculated (FIGS. 4-6; Tables 8-10).

PD-L1 on 293T cells [2] = target: T2, PD-L1 on 293T cells (UniProt Q9NZQ7 19-290); experiment: flow cytometry on PD-L1-293T cells
T2 construct: whole, on cells; also called PD-L1-293T; 293T-PD-L1 cells
Procedure: Cell binding analyses of anti-PD-L1 antibodies were performed based on binding to a 293T cell line stably expressing PD-L1 (PD-L1-293T). 2×10⁵ 293T-PD-L1 cells were added into each well of 96-well culture plates and incubated with the indicated antibody (20 μg/ml with the dilution of 1:5) at 4° C. for 1 h. After the cells were washed three times with FACS buffer, the secondary antibody (PE Goat anti-mouse: 1:200; PE mouse anti-human: 1:10) was added to the cells at 100 μl/well, and incubated at 4° C. for 40 min. Cells were washed three times with FACS buffer and analyzed by FACS Array.

Human PD-L1 = target: T3, Human PD-L1 (human, UniProt Q9NZQ7 19-238, limits assumed); experiment: SPR (Biacore 3000), antibody captured, PD-L1 as analyte, 1:1 fit
T3 construct: also called PD-L1 analyte (Biacore); hPD-L1
Procedure: The binding kinetics between PD-L1 and PD-L1 antibodies were measured by Biacore analysis, which was performed at 25° C. on a Biacore3000 instrument and recorded with a data collection rate of 1 Hz. Polyclonal rabbit anti-mouse IgG (GE, BR-1008-38) was diluted with 10 mM pH 5.0 sodium acetate and immobilized onto reference and experiment flow cells of a CM5 biosensor chip to around 15000 RU using an amine coupling kit (GE, BR10050). […] PD-L1 analyte series were prepared by diluting the stocks with running buffer to 100 nM followed by 2× serial dilution in the same buffer down to 0.78 nM. Analytes were injected in series over the reference and experiment flow cells for 3 minutes at a flow rate of 30 μL/minute. Running buffer (PBS with 0.05% P20) was allowed to flow over for 10 minutes at a flow rate of 30 μL/minute. At the end of each cycle, the biosensor surface was regenerated with 3 minutes injection of 10 mM pH1.7 Glycine-HCl buffer at a flow rate of 10 μL/minute. For each analyte sample injection (i.e. each cycle), binding responses obtained from the experimental biosensor surface were double referenced by subtracting simultaneously recorded responses from the reference surface followed by additional subtraction of responses from a single referenced running buffer sample. The association and dissociation rate constants (ka and kd) were determined simultaneously by fitting double-referenced sensorgrams of the entire titration series to Langmuir model (1:1) using Biaevaluation 4.0 software. The dissociation constant, KD, was calculated from the determined rate constants by the relation KD=kd/ka.

PD-L1 on 293T cells [3] = target: T2, PD-L1 on 293T cells; experiment: flow cytometry competition: blocks biotin-labeled PD-1 binding to PD-L1-293T cells
Procedure: Briefly, PD-L1-293T cells were suspended in FACS buffer (PBS with 3% fetal calf serum). Various concentrations of the hybridoma (FIG. 10), chimeric (FIG. 11), or humanized (FIG. 12) anti-PD-L1 antibodies were added to the cell suspension and incubated at 4° C. for 60 minutes in 96 well plates. […] The cells were washed 3 times with PBS and incubated with mouse anti-biotin PE (Biolegend, cat# 409004). The cell-associated fluorescence was then detected by flow cytometry analysis using FACS array.

hPD-L1-hFc = target: T4, hPD-L1-hFc (human); experiment: ELISA, coated PD-L1-hFc
T4 construct: it may hold a signal peptide ('open reading frame of the extracellular domain'); also called PD-L1-hFc protein; human PD-L1 extracellular domain fused with human Fc tag
Procedure: ELISA binding analyses were conducted based on human PD-L1-mFc (for chimeric and humanized antibody detection) and PD-L1-hFc protein (for hybridoma antibody detection). 96-well plates (Costar, Cat No: 9018) were coated with 100 μL of 2 μg/ml PD-L1-mFc (Crownbio) in coating buffer PBS (Hyclone, Cat No: SH30256.01B) overnight at 4° C. The wells were aspirated and non-specific binding sites were blocked by adding 200 μL of blocking buffer (PBS with 1% (w/v) of bovine serum albumin (BSA, Roche, Cat No:738328)) and incubating for 1 hour at 37° C. After the plates were washed three times with wash buffer (PBS with 0.05% (v/v) Tween20 (Sigma, Cat No:P1379)), 100 μL/well of 1:10 serial dilutions of hybridoma (FIG. 1), chimeric (FIG. 2), or humanized (FIG. 3) anti-PD-L1 antibodies in blocking buffer (starting from 20 μg/mL) were added and incubated at room temperature for 1 hour. The plates were washed and incubated with 100 μL/well of Goat anti-Mouse IgG (H+L) (Thermo, Cat No: 31432) in blocking buffer for 60 min. After the plates were washed, 100 μL/well of substrate solution TMB (eBioscience, Cat No: 00-4201-56) were added and the plates were incubated for 2 min at room temperature. 100 μL/well of stop solution (2N H₂SO₄) was added to stop the reaction. The colorimetric signals were developed and read at 450 nm using an Auto Plate SpectraMax Plus (Supplier: Moleculer Devices; Model: MNR0643; Software: SoftMax Pro v5.4). Data were analyzed using GraphPad Prism 5 and EC50 was calculated (FIGS. 1-3; Tables 5-7).

T1 sequence (chain, as listed by the source limits assumed): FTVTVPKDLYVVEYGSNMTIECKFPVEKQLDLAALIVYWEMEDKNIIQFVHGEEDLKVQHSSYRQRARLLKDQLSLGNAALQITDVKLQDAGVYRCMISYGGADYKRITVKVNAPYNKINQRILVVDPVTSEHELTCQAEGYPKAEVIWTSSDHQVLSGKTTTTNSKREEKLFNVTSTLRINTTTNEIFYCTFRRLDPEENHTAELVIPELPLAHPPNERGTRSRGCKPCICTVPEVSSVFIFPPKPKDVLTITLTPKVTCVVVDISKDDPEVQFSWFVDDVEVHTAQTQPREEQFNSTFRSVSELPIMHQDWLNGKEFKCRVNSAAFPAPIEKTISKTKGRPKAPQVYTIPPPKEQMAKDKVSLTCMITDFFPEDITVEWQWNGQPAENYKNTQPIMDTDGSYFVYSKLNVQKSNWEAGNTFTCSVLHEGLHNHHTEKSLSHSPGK
T3 sequence (Q9NZQ7 19-238 limits assumed): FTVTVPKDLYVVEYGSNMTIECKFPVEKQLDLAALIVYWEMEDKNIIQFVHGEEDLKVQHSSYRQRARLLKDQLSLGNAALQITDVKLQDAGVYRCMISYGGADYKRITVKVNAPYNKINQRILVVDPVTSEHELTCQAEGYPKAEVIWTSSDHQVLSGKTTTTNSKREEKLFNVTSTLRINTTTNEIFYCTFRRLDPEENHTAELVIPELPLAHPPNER
T2 sequence (Q9NZQ7 19-290 limits assumed): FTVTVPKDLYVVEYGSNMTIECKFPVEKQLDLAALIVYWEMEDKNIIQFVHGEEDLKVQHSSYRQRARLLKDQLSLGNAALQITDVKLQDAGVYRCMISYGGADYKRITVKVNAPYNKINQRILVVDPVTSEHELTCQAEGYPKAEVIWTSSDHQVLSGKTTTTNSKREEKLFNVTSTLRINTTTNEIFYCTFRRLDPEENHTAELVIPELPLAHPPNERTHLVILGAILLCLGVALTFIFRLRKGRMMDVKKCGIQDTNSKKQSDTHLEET
T4 sequence (chain, as listed by the source limits assumed): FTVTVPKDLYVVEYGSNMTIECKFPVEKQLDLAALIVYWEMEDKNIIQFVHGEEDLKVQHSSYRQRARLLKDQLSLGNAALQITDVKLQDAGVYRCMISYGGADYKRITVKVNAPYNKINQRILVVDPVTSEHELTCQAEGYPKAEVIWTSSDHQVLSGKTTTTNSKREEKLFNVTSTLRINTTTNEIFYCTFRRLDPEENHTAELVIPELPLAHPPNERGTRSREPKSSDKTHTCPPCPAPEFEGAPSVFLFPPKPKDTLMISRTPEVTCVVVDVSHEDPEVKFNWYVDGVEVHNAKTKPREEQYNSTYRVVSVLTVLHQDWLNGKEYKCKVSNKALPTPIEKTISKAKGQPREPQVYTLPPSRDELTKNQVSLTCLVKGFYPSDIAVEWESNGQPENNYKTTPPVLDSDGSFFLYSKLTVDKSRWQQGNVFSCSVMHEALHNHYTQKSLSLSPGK

Binder	IC50 [1] [µg/mL]	EC50 (PD-L1 on 293T cells [2]) [µg/mL]	Kd (Human PD-L1) [nM]	IC50 (PD-L1 on 293T cells [3]) [µg/mL]	EC50 (hPD-L1-hFc) [µg/mL]
B1	0.788	0.0435	4.56	0.0306	0.029
B2	–	–	2.28	–	–
B3	0.655	0.0478	3.59	0.0211	0.0487
B4	0.872	0.0453	1.35	0.0289	0.0651
B5	0.613	0.0337	4.78	0.0491	0.0312
B6	0.892	0.0474	6.01	0.0381	0.0314
B7	0.71	0.0359	0.19	0.0163	0.0459
B8	–	–	0.286	–	–
B9	0.868	0.0678	2.33	0.0291	0.0576
B10	0.344	0.041	1.53	0.0082	0.0182
